Test [1] has as its target T18-QseE (pYG246). The test is described as follows: BACTH assay (bacterial two-hybrid, β-galactosidase read-out), homodimerization. The note with it: reporter strain BTH101; plasmids pYG246/pYG199_TM1; parent: est. 3600; read off a plot.
Test [2] deals with T1, QseG-Strep (E. coli K-12, UniProt P0AD44 26-237, Cys26 predicted by the paper to be lipidated).
T1 sequence (looked up): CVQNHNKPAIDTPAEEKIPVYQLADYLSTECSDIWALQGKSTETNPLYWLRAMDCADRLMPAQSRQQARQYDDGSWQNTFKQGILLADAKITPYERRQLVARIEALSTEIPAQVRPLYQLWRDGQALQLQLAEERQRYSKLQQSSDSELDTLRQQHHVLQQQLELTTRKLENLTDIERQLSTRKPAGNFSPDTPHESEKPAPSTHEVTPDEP
In words: cell-based or functional assay.

Test [3] addresses T1, QseG-Strep. In words: pull-down; bait and prey from two compatible plasmids in E. coli Z970 (1 mM IPTG, 0.2% arabinose, 3 h); cleared lysates with MagStrep type3 XT beads 60 min at 4°C, washed 4× with buffer W; Western blot. The note with it: partners not purified. (In general: In western blotting, separated proteins are transferred to a membrane and probed.)

The source of these data is publication PMC6075780, “Interaction of lipoprotein QseG with sensor kinase QseE in the periplasm controls the phosphorylation state of the two-component system QseE/QseF in Escherichia coli” (PLoS Genetics, 2018).

As to “T25-QseE (from UniProt P52101) F19L; L21H; I22R; L23P; L24P”, the response in test [1] was 1000 Miller units.

B1: QseE-S58N-3×FLAG (natural protein, E. coli K-12, UniProt P52101 1-475, looked up)
chain: MKRWPVFPRSLRQLVMLAFLLILLPLLVLAWQAWQSLNALSDQAALVNRTTLIDARRNEAMTNAALEMERSYRQYCVLDDPTLAKVYQSQRKRYSEMLDAHAGVLPDDKLYQALRQDLHNLAQLQCNNSGPDAAAAARLEAFASANTEMVQATRTVVFSRGQQLQREIAERGQYFGWQSLVLFLVSLVMVLLFTRMIIGPVKNIERMINRLGEGRSLGNSVSFSGPSELRSVGQRILWLSERLSWLESQRHQFLRHLSHELKTPLASMREGTELLADQVVGPLTPEQKEVVSILDSSSRNLQKLIEQLLDYNRKQADSAVELENVELAPLVETVVSAHSLPARAKMMHTDVDLKATACLAEPMLLMSVLDNLYSNAVHYGAESGNICLRSSLHGARVYIDVINTGTPIPQEERAMIFEPFFQGSHQRKGAVKGSGLGLSIARDCIRRMQGELYLVDESGQDVCFRIELPSSKNTK
notes: Histidine kinase QseE of E. coli K-12 with the S58N exchange in the periplasmic loop; also called QseE-S58N variant; source: E. coli strain Z970, from plasmid pYG318-S58N, in lysate; not shown: 3×FLAG, C-terminal, kept
Take B1: in test [2], the “fold decrease in glmY'-lacZ β-galactosidase activity of the ΔqseE strain Z970 complemented with plasmid-encoded QseE-S58N (pYG221-S58N), against wild-type QseE (pYG221)” value was 3 fold. In addition, in test [3], the “fold reduction of co-purifying protein against wild-type QseE-3×FLAG” value is around 3 fold.
